System: β-catenin
Experiment: TOP Flash/FOP flash luciferase reporter in hpRPE cells
Format: cell-based, human
Settings: hpRPE cells undergoing UOS+/−NPD1
Excerpt: We tested whether or not Wnt5a activates […] using TOP Flash/FOP flash reporter system in hpRPE cells undergoing UOS+/−NPD1 (FIG. 1g).
Except TOP/FOP flash, the Luciferase activity can be standardized using a construct expressing GFP constitutively under CMV virus promoter. To assess luciferase activity, cell lysates can be obtained using Passive Lysis Buffer (Promega, Madison, Wis.) and mixed with a luciferase assay reagent (Promegam Madison, Wis.). Chemiluminescence produced by luciferase and fluorescence from GFP can be detected using Appliscan 2.3. Data can be analyzed using SkanIt 2.3 (Thermo Fisher Scientific, Waltham, Mass.).
Except TOP/FOP flash, the Luciferase activity was standardized using a construct expressing GFP constitutively under CMV virus promoter. To assess luciferase activity, cell lysates were obtained using Passive Lysis Buffer (Promega) and mixed with a luciferase assay reagent (Promega). Chemiluminescence produced by luciferase and fluorescence from GFP was detected using Appliscan 2.3. Data were analyzed using SkanIt 2.3 (Thermo Fisher Scientific).

B1: Wnt3a: recombinant protein, R&D systems 5036-WN; canonical Wnt ligand (protein, UniProt P56704 19-352, looked up)
Protein Wnt-3a: SYPIWWSLAVGPQYSSLGSQPILCASIPGLVPKQLRFCRNYVEIMPSVAEGIKIGIQECQHQFRGRRWNCTTVHDSLAIFGPVLDKATRESAFVHAIASAGVAFAVTRSCAEGTAAICGCSSRHQGSPGKGWKWGGCSEDIEFGGMVSREFADARENRPDARSAMNRHNNEAGRQAIASHMHLKCKCHGLSGSCEVKTCWWSQPDFRAIGDFLKDKYDSASEMVVEKHRESRGWVETLRPRYTYFKVPTERDLVYYEASPNFCEPNPETGSFGTRDRTCNVSSHGIDGCDLLCCGRGHNARAERRREKCRCVFHWCCYVSCQECTRVYDVHTCK
  β-catenin activity (luciferase): rose almost twice

From patent US20220119446A1, “BIOMARKERS AND TREATMENT OF NEURONAL INJURY AND NEURODEGENERATION” (Board of Supervisons of Louisiana State University and …, priority 2018, published 2022)
